First the molecules themselves.
T1: BMPRII-Fc (R&D Systems) (UniProt Q13873 27-150)
T1 construct: BMPRII part of the bought Fc fusion; source: bought: R&D Systems (cat. No. 811-BR)
T1 sequence (looked up): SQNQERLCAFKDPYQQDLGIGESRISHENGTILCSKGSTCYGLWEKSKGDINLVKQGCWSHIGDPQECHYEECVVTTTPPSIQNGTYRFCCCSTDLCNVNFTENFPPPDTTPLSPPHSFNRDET

T2: BMPRII ECD Q92H (human, UniProt Q13873-1 27-150, Q92H)
T2 construct: BMPRII (BMPR2) extracellular domain, human, amino acids 27-150 of the cDNA NM_001204; mutation found in PAH patients; source: E. coli Rosetta DE3, periplasm, purified (HisTrap, TEV cleavage, Superdex 75); not shown: DsbA, N-terminal, cleaved; His6, N-terminal, cleaved
T2 sequence (looked up): T1 sequence (looked up) with Q66H

T3: BMPRII ECD E98K (human, UniProt Q13873-1 27-150, E98K)
T3 construct: BMPRII (BMPR2) extracellular domain, human, amino acids 27-150 of the cDNA NM_001204; mutation found in PAH patients; source: E. coli Rosetta DE3, periplasm, purified (HisTrap, TEV cleavage, Superdex 75); not shown: DsbA, N-terminal, cleaved; His6, N-terminal, cleaved
T3 sequence (looked up): T1 sequence (looked up) with E72K

T4: BMPRII ECD N126S (human, UniProt Q13873-1 27-150, N126S)
T4 construct: BMPRII (BMPR2) extracellular domain, human, amino acids 27-150 of the cDNA NM_001204; mutation found in PAH patients; source: E. coli Rosetta DE3, periplasm, purified (HisTrap, TEV cleavage, Superdex 75); not shown: DsbA, N-terminal, cleaved; His6, N-terminal, cleaved
T4 sequence (looked up): T1 sequence (looked up) with N100S

B1: Recombinant human BMP10 growth factor (GF)-domain (R&D Systems) (ligand, UniProt O95393 317-424, looked up)
chain: NAKGNYCKRTPLYIDFKEIGWDSWIIAPPGYEAYECRGVCNYPLAEHLTPTKHAIIQALVHLKNSQKASKACCVPTKLEPISILYLDKGVVTYKFKYEGMAVSECGCR
notes: growth factor (GF) domain of human BMP10, the cut product of the BMP10 precursor; also called BMP10 GF-domain; source: bought: R&D Systems (cat. No. 2926-BP-025/CF)
B2: BMP10 growth factor (GF)-domain from Pro:BMP10 made in HEK EBNA cells (ligand, human, UniProt O95393 317-424, looked up)
chain: B1 chain
notes: growth factor (GF) domain of human BMP10, cut by furin from the product of the full-length open reading frame (NM_014482); also called BMP10 GF-domain; source: HEK EBNA, full-length BMP10 cDNA co-transfected with FURIN, purified from conditioned medium as Pro:BMP10
B3: BMPRII ECD G89A (domain or fragment, human, UniProt Q13873-1 27-150, looked up)
chain: T1 sequence (looked up) with G63A
notes: BMPRII (BMPR2) extracellular domain, human, amino acids 27-150 of the cDNA NM_001204; source: E. coli Rosetta DE3, periplasm, purified (HisTrap, TEV cleavage, Superdex 75); not shown: DsbA, N-terminal, cleaved; His6, N-terminal, cleaved
B4: BMPRII ECD G89E (domain or fragment, human, UniProt Q13873-1 27-150, looked up)
chain: T1 sequence (looked up) with G63E
notes: as for B3
B5: BMPRII ECD G89W (domain or fragment, human, UniProt Q13873-1 27-150, looked up)
chain: T1 sequence (looked up) with G63W
notes: as for B3
B6: BMPRII ECD S107P (domain or fragment, human, UniProt Q13873-1 27-150, looked up)
chain: T1 sequence (looked up) with S81P
notes: BMPRII (BMPR2) extracellular domain, human, amino acids 27-150 of the cDNA NM_001204; mutation found in PAH patients; source: E. coli Rosetta DE3, periplasm, purified (HisTrap, TEV cleavage, Superdex 75); not shown: DsbA, N-terminal, cleaved; His6, N-terminal, cleaved

Data set [1] has as its target T1, BMPRII-Fc (R&D Systems). The data set is described as follows: SPR; BMP10 flowed over a BMPRII-Fc surface, with ALK1 present (Supplementary Fig 5c). The settings on record: both partners purified. For orientation: SPR reads the build-up and loss of mass on a sensor chip optically.
The target in data set [2] is T2, BMPRII ECD Q92H. The data set is described as follows: SPR; Biacore T200; BMP10 GF-domain amine-coupled to a CM5 chip (1300 RU); ALK1-Fc, BMPRII-Fc or monomeric BMPRII WT and mutant ECDs injected at 40 ul/min; 10 mM HEPES pH 7.4, 150 mM NaCl, 3.4 mM EDTA, 0.5 mg/ml BSA, 0.005% P20, 25 °C; 1:1 model, KD = kd/ka. The settings on record: both partners purified.
Data set [3] deals with T3, BMPRII ECD E98K. Described as above. The settings on record: both partners purified.
Data set [4] deals with T4, BMPRII ECD N126S. The data set is described as above. The settings on record: both partners purified.
Data set [5] deals with the molecule itself. The data set is described as follows: crystal structure; BMP10:BMPRII ECD binary complex, two crystal forms (P212121, 1.48 Å; C2, 2.40 Å); complex refolded from denatured BMP10 GF-domain with excess BMPRII ECD.
The target of data set [6] is T3, BMPRII ECD E98K. The data set can be described thus: native gel or EMSA; prodomain displacement: Pro:BMP10 premixed with BMPRII WT or mutant ECDs at 1:2 and 1:5 molar ratio, 20 mM Tris, 150 mM NaCl, pH 7.4, 30 min at room temperature, 12% native PAGE, Coomassie, densitometry of Pro:BMP10/prodomain. The settings on record: both partners purified. (In general: Mobility shift assays separate free from complexed probe on a gel.)

For data set [7], the target named is T4, BMPRII ECD N126S. The description is as above. The settings on record: both partners purified.
The target of data set [8] is B1. The data set is described as follows: SPR; Biacore T200; BMP10 GF-domain amine-coupled to a CM5 chip (1300 RU); ALK1-Fc, BMPRII-Fc or monomeric BMPRII WT and mutant ECDs injected at 40 ul/min; 10 mM HEPES pH 7.4, 150 mM NaCl, 3.4 mM EDTA, 0.5 mg/ml BSA, 0.005% P20, 25 °C; 1:1 model, KD = kd/ka. The settings on record: both partners purified.

Residue numbers refer to the chain shown, from its start.

As to B1, the “fold weaker affinity with ALK1 present than without ALK1” value in data set [1] was approximately 5 fold. The binding result in data set [2], in data set [3] and in data set [4] was “binds” each time.

B2: the binding result in data set [5], in data set [6] and in data set [7] was “binds” each time.

For the molecule B3, in data set [8], the “fold reduction in affinity against WT BMPRII ECD” value (“fold reduction in affinity” for short) is less than 2 fold.

Turning to B4, in data set [8], the “fold reduction in affinity” value is more than 100 fold.

Regarding B5, the “fold reduction in affinity” value in data set [8] was more than 100 fold.

Consider B6, for which the “fold tighter binding than WT BMPRII ECD” value in data set [8] was approximately 4 fold.

Values taken from paper PMC9064986, “Crystal structures of BMPRII extracellular domain in binary and ternary receptor complexes with BMP10” (Nature Communications, 2022).
